Experimental data from patent US20130209454A1.

How the values were obtained:
Assay in all cases: cell-based or functional assay
[1] = molecular target: HIV-1 Env of strain CNE58 (HIV-1)
[2] = molecular target: HIV-1 Env of strain X2088_c9 (HIV-1)
[3] = molecular target: HIV-1 Env of strain THRO4156.18 (HIV-1)
[4] = molecular target: HIV-1 Env of strain BJOX010000.06.2 (HIV-1)
[5] = molecular target: Env of HIV-1 strain 191821_E6_1 (HIV-1)
[6] = molecular target: HIV-1 Env of strain ZM197M.PB7 (HIV-1)
[7] = molecular target: HIV-1 Env of strain 249M B10 (HIV-1)
[8] = molecular target: HIV-1 Env of strain BJOX025000.01.1 (HIV-1)
[9] = molecular target: HIV-1 Env of strain 1056_10_TA11_1826 (HIV-1)
[10] = molecular target: HIV-1 Env of strain C1080.c03 (HIV-1)
[11] = molecular target: HIV-1 Env of strain Ce0682_E4 (HIV-1)
[12] = molecular target: HIV-1 Env of strain QH0692.42 (HIV-1)
[13] = molecular target: Env of HIV-1 strain CAP45.2.00.G3 (HIV-1)
[14] = molecular target: Env of HIV-1 strain CNE20 (HIV-1)
[15] = molecular target: HIV-1 Env of strain 7030102001E5(Rev) (HIV-1)
[16] = molecular target: Env of HIV-1 strain T250-4 (HIV-1)
[17] = molecular target: Env of HIV-1 strain 3365.v2.c2 (HIV-1)
[18] = molecular target: HIV-1 Env of strain Ce703010054_2A2 (HIV-1)
[19] = molecular target: Env of HIV-1 strain C4118.c09 (HIV-1)
[20] = molecular target: HIV-1 Env of strain ZM109F.PB4 (HIV-1)
[21] = molecular target: Env of HIV-1 strain CAP210.2.00.E8 (HIV-1)
[22] = molecular target: HIV-1 Env of strain CNE20 (HIV-1)
[23] = molecular target: Env of HIV-1 strain 3415.v1.c1 (HIV-1)
[24] = molecular target: HIV-1 Env of strain 3103.v3.c10 (HIV-1)
[25] = molecular target: HIV-1 Env of strain ZM247v1(Rev-) (HIV-1)
[26] = molecular target: Env of HIV-1 strain T251-18 (HIV-1)
[27] = molecular target: HIV-1 Env of strain HIV-001428-2.42 (HIV-1)
[28] = molecular target: HIV-1 Env of strain CNE52 (HIV-1)
[29] = molecular target: Env of HIV-1 strain ZM249M.PL1 (HIV-1)

NIH45-46 (antibody), sequence (VH): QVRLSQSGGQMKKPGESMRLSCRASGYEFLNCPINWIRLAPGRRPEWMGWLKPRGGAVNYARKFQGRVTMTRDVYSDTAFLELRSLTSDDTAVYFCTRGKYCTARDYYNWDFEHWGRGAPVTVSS
NIH45-46 (antibody), sequence (V domain): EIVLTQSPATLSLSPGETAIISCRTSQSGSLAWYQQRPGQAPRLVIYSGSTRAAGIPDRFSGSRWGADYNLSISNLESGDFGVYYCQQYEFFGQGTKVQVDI

NIH45-46 (antibody)
IC50, pseudovirus neutralization [1]: 0.43 µg/mL | IC50, pseudovirus neutralization [2]: > 50 µg/mL | IC50, pseudovirus neutralization [3]: 1.91 µg/mL | IC50, pseudovirus neutralization [4]: 0.87 µg/mL | IC80 [5]: 0.46 µg/mL | IC50, pseudovirus neutralization [6]: 0.15 µg/mL | IC50, pseudovirus neutralization [7]: 0.04 µg/mL | IC50, pseudovirus neutralization [8]: 0.18 µg/mL | IC50, pseudovirus neutralization [9]: 0.094 µg/mL | IC50, pseudovirus neutralization [10]: 2.48 µg/mL | IC50, pseudovirus neutralization [11]: 0.054 µg/mL | IC50, pseudovirus neutralization [12]: 0.72 µg/mL | IC80 [13]: > 50 µg/mL | IC80 [14]: > 50 µg/mL | IC50, pseudovirus neutralization [15]: 0.14 µg/mL | IC80 [16]: > 50 µg/mL | IC80 [17]: 0.11 µg/mL | IC50, pseudovirus neutralization [18]: 0.159 µg/mL | IC80 [19]: 0.91 µg/mL | IC50, pseudovirus neutralization [20]: 0.095 µg/mL | IC80 [21]: > 50 µg/mL | IC50, pseudovirus neutralization [22]: 7.83 µg/mL | IC80 [23]: 0.086 µg/mL | IC50, pseudovirus neutralization [24]: 1.77 µg/mL | IC50, pseudovirus neutralization [25]: 2.94 µg/mL | IC80 [26]: 3.68 µg/mL | IC50, pseudovirus neutralization [27]: 0.001 µg/mL | IC50, pseudovirus neutralization [28]: 0.03 µg/mL | IC80 [29]: 0.053 µg/mL
